The record followed here is CN117836322A (PASTEUR INSTITUT, dated 2024).

“And” between values parts separate entries of the source, which are not always exact repeats. Identical values can stand only once.

For assay [1], the target named is SARS-CoV-2 Omicron BA.1 spike on virus (SARS-CoV-2). Put plainly: cell-based or functional assay.
Assay [2] addresses SARS-CoV-2 Delta (δ, B.1.617.2) spike on virus (SARS-CoV-2). Put plainly: cell-based or functional assay.

B1: Cv2.3194 IgG1 (antibody, V domains shown)
VH: EVQLVESGGGLIQPGGSLRLSCAASGITVTSNYMSWVRQAPGKGLEWVSVIYPGGSTFYADSVKGRFTISRDNSKNTLYLQMNSLRAEDTAVYYCARDLVVYGMDVWGQGTTVTVSS
VL: EIVLTQSPGTLSLSPGERATLSCRASQSVSSSYLAWYQQKPGQAPRLLIYGASSRATGIPGRFSGSGSGTDFTLTISRLEPEDFAIYYCQQGVTFGGGTKVEIKR
For the molecule B1, in assay [1], the “IC50 (S-融合测定)” value turned out to be 0.0242 µg/mL.

B2: Cv2.1169 IgG1 (antibody, V domains shown)
VH: QVQLVQSGPEVKKPGTSVKVSCKASGFTFTTSAVQWVRQARGQRLEWIGWIVVGSGNTNYAQKFQERVTITRDMSTTTAYMELSSLRSEDTAVYYCAAPYCSGGTCLDGFDIWGQGTMVTVSS
VL: not shown
Take B2: in assay [1], the “IC50 (S-融合测定)” value is 0.253 µg/mL and 0.212 µg/mL; the “IC50 (中和)” value was roughly 0.25 µg/mL. Further, in assay [2], the “IC50 (S-融合测定)” value was determined as 0.00446 µg/mL.
